In paper PMC4979064, “Crystal structure of the plant receptor-like kinase TDR in complex with the TDIF peptide” (Nature Communications, 2016):
Square brackets hold non-standard residues; d marks the D form. Ends that are not written are not given here. Hyp = O=C(O)[C@@H]1C[C@@H](O)CN1; Ahx = NCCCCCC(=O)O

T1: lysine methylated C259A/C540S TDR mutant, extracellular domain (residues 31–631) (Arabidopsis thaliana, UniProt Q9FII5 31-631, C259A | C540S, lysine residues methylated; digested with Endo H (deglycosylated))
T1 construct: TDR/PXY, Arabidopsis thaliana, extracellular LRR domain, residues 31-631, with C259A/C540S; also called lysine methylated C259A/C540S mutant; methylated TDR protein; not shown: 10xHis (after an HRV3C protease site), C-terminal, cleaved
T1 sequence (looked up): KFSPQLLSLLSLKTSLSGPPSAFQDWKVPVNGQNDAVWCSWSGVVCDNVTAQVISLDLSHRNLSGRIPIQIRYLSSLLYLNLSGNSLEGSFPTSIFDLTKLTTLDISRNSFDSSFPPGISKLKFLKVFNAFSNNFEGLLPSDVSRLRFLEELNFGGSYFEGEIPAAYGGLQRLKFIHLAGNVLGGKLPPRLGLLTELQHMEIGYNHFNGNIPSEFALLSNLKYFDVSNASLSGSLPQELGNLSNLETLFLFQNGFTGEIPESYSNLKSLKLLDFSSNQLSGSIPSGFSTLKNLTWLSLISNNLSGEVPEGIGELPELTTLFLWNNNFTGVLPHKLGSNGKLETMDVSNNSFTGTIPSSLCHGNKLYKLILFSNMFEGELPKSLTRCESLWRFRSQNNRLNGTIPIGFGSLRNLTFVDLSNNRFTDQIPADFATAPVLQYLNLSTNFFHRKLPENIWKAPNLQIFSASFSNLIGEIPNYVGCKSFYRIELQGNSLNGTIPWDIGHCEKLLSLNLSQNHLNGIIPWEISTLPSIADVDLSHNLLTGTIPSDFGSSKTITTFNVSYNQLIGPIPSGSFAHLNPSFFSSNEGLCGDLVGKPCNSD

T2: TDR R421A mutant (in the C259A/C540S extracellular domain, residues 31–631) (Arabidopsis thaliana, UniProt Q9FII5 31-631, C259A | C540S | R421A)
T2 construct: TDR/PXY, Arabidopsis thaliana, extracellular LRR domain, residues 31-631, C259A/C540S background with R421A; source: Sf9 insect cells (baculovirus), purified (Ni Sepharose excel)
T2 sequence (looked up): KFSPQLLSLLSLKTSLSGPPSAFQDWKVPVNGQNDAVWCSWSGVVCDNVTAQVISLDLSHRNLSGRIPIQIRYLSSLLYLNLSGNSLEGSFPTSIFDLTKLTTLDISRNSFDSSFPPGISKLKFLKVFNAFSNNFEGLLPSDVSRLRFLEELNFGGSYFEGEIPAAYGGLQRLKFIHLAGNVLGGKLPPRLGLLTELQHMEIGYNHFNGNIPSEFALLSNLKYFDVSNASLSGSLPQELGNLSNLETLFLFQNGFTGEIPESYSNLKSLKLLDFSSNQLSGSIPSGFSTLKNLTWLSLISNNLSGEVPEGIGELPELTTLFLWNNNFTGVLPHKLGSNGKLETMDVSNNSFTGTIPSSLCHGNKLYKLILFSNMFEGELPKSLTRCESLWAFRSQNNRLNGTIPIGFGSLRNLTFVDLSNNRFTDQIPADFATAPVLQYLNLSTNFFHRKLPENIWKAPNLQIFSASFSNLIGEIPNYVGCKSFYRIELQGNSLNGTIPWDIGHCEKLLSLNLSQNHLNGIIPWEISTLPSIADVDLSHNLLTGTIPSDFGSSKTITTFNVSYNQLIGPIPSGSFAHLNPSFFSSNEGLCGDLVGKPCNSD

T3: TDR S162A mutant (in the C259A/C540S extracellular domain, residues 31–631) (Arabidopsis thaliana, UniProt Q9FII5 31-631, C259A | C540S | S162A)
T3 construct: TDR/PXY, Arabidopsis thaliana, extracellular LRR domain, residues 31-631, C259A/C540S background with S162A; source: Sf9 insect cells (baculovirus), purified (Ni Sepharose excel)
T3 sequence (looked up): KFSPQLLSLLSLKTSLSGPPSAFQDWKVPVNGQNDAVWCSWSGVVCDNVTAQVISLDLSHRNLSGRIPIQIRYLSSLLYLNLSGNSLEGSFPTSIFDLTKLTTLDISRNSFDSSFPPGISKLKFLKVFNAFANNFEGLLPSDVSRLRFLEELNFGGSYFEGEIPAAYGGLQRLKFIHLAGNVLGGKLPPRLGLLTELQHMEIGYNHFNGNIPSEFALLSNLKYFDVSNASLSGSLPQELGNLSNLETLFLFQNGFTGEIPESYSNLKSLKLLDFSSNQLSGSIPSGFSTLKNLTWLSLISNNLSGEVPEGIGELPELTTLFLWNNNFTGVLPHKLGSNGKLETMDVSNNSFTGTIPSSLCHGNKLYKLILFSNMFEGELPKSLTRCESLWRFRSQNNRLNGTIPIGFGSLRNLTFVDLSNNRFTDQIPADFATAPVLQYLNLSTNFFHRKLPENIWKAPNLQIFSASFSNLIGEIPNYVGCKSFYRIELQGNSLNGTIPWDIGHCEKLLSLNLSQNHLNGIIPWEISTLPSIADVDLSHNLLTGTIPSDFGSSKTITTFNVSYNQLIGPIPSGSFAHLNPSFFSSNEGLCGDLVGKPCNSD

T4: C259A/C540S TDR mutant, extracellular domain (residues 31–631), as in the pull-down of Fig. 2e (Arabidopsis thaliana, UniProt Q9FII5 31-631, C259A | C540S)
T4 construct: TDR/PXY, Arabidopsis thaliana, extracellular LRR domain, residues 31-631, with C259A/C540S; it may be the same preparation as m2; also called C259A/C540S mutant; TDR C259A/C540S mutant; source: Sf9 insect cells (baculovirus), purified
T4 sequence (looked up): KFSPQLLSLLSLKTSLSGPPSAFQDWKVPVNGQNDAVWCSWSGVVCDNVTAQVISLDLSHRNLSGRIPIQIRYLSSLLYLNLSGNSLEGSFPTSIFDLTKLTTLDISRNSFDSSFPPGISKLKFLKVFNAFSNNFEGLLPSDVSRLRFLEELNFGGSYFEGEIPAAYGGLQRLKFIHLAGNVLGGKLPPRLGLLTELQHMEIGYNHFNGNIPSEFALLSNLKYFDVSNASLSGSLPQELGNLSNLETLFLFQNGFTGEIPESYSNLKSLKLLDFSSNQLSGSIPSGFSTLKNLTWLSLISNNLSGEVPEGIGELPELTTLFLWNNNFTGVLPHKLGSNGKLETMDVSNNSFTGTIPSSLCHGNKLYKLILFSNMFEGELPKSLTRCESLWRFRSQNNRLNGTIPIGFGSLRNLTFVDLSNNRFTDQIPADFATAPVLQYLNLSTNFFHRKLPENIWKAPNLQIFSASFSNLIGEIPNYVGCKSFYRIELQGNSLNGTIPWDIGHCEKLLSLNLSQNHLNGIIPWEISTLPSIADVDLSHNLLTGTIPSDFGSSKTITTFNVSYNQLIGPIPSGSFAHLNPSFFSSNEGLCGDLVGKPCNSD

T5: TDR R423A mutant (in the C259A/C540S extracellular domain, residues 31–631) (Arabidopsis thaliana, UniProt Q9FII5 31-631, C259A | C540S | R423A)
T5 construct: TDR/PXY, Arabidopsis thaliana, extracellular LRR domain, residues 31-631, C259A/C540S background with R423A; source: Sf9 insect cells (baculovirus), purified (Ni Sepharose excel)
T5 sequence (looked up): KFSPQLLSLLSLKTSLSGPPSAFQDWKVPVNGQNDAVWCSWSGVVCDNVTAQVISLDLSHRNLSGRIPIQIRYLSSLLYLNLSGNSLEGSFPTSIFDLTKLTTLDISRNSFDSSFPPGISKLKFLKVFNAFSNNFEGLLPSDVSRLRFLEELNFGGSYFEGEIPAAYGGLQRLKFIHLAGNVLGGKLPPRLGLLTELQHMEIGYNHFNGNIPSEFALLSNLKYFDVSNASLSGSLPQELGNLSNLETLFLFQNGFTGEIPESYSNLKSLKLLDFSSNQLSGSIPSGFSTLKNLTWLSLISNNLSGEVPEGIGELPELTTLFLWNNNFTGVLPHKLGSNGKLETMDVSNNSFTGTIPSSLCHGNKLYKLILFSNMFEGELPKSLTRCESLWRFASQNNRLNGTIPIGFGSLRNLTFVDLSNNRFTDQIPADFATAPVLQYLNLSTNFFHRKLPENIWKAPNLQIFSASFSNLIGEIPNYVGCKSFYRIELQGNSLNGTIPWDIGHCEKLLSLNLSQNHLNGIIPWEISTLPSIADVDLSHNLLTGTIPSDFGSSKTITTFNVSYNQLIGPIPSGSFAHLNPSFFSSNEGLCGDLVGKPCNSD

T6: extracellular domain (residues 31–631) of TDR from A. thaliana, wild type (Arabidopsis thaliana, UniProt Q9FII5 31-631)
T6 construct: TDR/PXY (TDIF receptor/phloem intercalated with xylem), LRR receptor-like kinase, Arabidopsis thaliana, extracellular LRR domain, residues 31-631; The purification told in the methods cleaves the His tag with HRV3C protease; also called wild-type TDR; TDIF receptor; source: Sf9 insect cells (baculovirus), secreted into the culture supernatant, purified
T6 sequence (looked up): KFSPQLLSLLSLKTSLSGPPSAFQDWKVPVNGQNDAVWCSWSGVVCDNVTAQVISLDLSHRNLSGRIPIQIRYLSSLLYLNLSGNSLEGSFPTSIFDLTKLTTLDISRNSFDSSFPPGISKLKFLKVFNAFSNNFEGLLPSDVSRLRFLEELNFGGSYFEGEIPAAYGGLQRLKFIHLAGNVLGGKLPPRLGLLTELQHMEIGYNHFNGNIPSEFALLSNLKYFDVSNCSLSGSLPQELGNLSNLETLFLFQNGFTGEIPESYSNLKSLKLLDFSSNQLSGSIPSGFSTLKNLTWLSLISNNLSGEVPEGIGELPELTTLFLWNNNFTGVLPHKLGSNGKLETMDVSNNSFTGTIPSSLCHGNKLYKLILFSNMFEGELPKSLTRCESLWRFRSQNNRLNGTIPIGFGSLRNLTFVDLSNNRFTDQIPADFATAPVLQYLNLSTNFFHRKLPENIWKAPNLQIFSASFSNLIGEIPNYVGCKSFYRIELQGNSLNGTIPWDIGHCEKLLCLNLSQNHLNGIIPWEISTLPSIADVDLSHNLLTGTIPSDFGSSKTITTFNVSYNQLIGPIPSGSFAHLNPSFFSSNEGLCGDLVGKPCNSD

T7: TDR F161A mutant (in the C259A/C540S extracellular domain, residues 31–631) (Arabidopsis thaliana, UniProt Q9FII5 31-631, C259A | C540S | F161A)
T7 construct: TDR/PXY, Arabidopsis thaliana, extracellular LRR domain, residues 31-631, C259A/C540S background with F161A; source: Sf9 insect cells (baculovirus), purified (Ni Sepharose excel)
T7 sequence (looked up): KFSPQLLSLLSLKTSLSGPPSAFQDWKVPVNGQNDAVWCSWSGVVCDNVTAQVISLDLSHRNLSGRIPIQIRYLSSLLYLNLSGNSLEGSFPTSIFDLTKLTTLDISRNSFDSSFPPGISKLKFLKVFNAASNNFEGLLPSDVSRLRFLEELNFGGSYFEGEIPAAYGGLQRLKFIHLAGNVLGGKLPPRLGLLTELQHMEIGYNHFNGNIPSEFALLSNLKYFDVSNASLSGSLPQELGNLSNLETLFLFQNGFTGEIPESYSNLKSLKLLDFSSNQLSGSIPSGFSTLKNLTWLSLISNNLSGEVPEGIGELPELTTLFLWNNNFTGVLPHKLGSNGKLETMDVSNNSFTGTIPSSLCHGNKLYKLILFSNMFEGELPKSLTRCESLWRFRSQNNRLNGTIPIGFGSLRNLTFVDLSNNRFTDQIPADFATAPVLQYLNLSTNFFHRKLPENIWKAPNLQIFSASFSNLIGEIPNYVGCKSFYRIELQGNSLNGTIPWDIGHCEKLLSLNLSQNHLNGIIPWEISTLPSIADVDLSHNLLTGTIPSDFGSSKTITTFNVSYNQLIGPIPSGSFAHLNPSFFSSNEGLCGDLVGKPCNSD


How the values were obtained:
Details in all cases: both partners purified
[1] = target: T1, lysine methylated C259A/C540S TDR …; experiment: crystal structure; TDR and TDIF mixed at a molar ratio of 1:1.5, vapour diffusion at 20 °C, 4 M sodium nitrate, 0.1 M sodium acetate pH 4.8, 200 mM ammonium sulfate; 3.0 Å, molecular replacement
[2] = target: T2, TDR R421A mutant (in the C259A/C540S …); experiment: pull-down; biotinylated TDIF (2 ug) held on Dynabeads M-280 Streptavidin; purified TDR protein added with 0.1 mg/ml BSA, 4 °C, 2 h; wash buffer 20 mM Tris-HCl pH 7.5, 150 mM NaCl; bound protein eluted in SDS sample buffer, SDS-PAGE
[3] = target: T3, TDR S162A mutant (in the C259A/C540S …); experiment: as above
[4] = target: T4, C259A/C540S TDR mutant, extracellular …; experiment: as above
[5] = target: T5, TDR R423A mutant (in the C259A/C540S …); experiment: as above
[6] = target: T6, extracellular domain (residues 31–631) …; experiment: as above
[7] = target: T7, TDR F161A mutant (in the C259A/C540S …); experiment: as above
[8] = target: T1, lysine methylated C259A/C540S TDR …; experiment: as above

Row | binding result [1] | binding result [2] | binding result [3] | binding result [4] | binding result [5] | binding result [6] | binding result [7] | binding result [8] | Binder
1 | binds | – | – | – | – | – | – | – | HEV[Hyp]SG[Hyp]NPISN (TDIF, 12-residue CLE family peptide with two hydroxyprolines (written P at 4 and 7), encoded by the CLE41 and CLE44 genes in Arabidopsis; the processed peptide from the C-terminus of the precursor; The same peptide is also encoded by CLE44; also called synthesized TDIF peptide; source: synthetic peptide (Eurofins Genomics)) [Tracheary element differentiation factor (TDIF) peptide, HEV(Hyp)SG(Hyp)NPISN]
2 | – | binds | binds | binds | binds | binds | binds | binds | HEV[Hyp]SG[Hyp]NPISNGSGS-{Ahx-biotin} (TDIF, 12-residue CLE family peptide with two hydroxyprolines (written P at 4 and 7), encoded by the CLE41 and CLE44 genes in Arabidopsis; linker before (Ahx)-Biotin; also called biotinylated TDIF peptides; source: synthetic peptide (Eurofins Genomics); not shown: Biotin, C-terminal, kept) [biotinylated TDIF peptide, HEV(Hyp)SG(Hyp)NPISN-GSGS-(Ahx)-Biotin]
